Reference: PMC12394722, “Regulatory role of the N-terminal intrinsically disordered region of the DEAD-box RNA helicase DDX3X in selective RNA recognition”

Target: MBP-FL DDX3X (human, UniProt O00571 1-662)
Experiment: EMSA; 1 mM ATP-Mg; peer review file prints 665; EMSA: 20 mM K-phosphate pH 7.0, 125 mM KCl, 1 mM DTT, 0.005% Tween-20, 10% glycerol (1 mM ATP-Mg for MBP-FL/Core-C), gel at room temperature; ITC: 20 mM K-phosphate pH 7.0, 50 mM KCl, 25 C; NMR: 200 mM KCl (also 120 mM), 10 C, 50 uM
Conditions: protein: recombinant; tags: N-terminal His6-MBP; chain copies: 2; label: 3'-FAM; blunt, self-complementary

Sequence of MBP-FL DDX3X (O00571 whole entry): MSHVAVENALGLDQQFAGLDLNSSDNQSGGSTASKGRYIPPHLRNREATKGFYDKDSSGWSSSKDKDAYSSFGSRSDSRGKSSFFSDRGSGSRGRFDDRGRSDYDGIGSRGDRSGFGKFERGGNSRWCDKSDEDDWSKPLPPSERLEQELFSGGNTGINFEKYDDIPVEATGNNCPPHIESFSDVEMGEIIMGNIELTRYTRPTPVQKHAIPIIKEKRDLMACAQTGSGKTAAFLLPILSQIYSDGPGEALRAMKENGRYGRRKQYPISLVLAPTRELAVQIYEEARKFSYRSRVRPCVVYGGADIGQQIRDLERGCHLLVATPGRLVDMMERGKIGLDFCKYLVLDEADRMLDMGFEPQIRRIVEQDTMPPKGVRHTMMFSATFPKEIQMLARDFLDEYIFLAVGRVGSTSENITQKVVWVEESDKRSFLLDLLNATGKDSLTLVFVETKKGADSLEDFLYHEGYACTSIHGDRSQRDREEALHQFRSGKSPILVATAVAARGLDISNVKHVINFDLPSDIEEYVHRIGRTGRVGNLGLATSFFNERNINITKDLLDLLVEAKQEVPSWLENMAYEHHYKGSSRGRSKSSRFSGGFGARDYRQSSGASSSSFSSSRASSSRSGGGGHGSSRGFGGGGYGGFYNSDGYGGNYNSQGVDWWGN

B1: GC-14mer dsRNA-FAM (dsRNA)
RNA 1: GGGCGGGCCCGCCC
RNA 2: GGGCGGGCCCGCCC
  Kd: 655 ± 31 nM
